The values that follow come from article PMC6142219.

This assay has as its target CBS–CP12 protein (IPF_2164) of Microcystis aeruginosa PCC 7806 (Microcystis aeruginosa PCC 7806). As to the kind of experiment: SEC.

Take “CBS–CP12 protein (IPF_2164) of Microcystis aeruginosa PCC 7806 (natural protein)”: the stoichiometry N was 6.

By stoichiometry N is commonly meant a count of units in the complex or per binding partner.
